According to patent publication US20180231548:

How the values were obtained:
[1] = target: T1, Methyl Red (MR)-AAPV-NBD-UBI29-41
T1 chain: AAPVKTGRAKRRMQYNRR

B1: human neutrophil elastase (protein)
chain: IVGGRRARPHAWPFMVSLQLRGGHFCGATLIAPNFVMSAAHCVANVNVRAVRVVLGAHNLSRREPTRQVFAVQRIFENGYDPVNLLNDIVILQLNGSATINANVQVAQLPAQGRRLGNGVQCLAMGWGLLGRNRGIASVLQELNVTVVTSLCRRSNVCTLVRGRQAGVCFGDSGSPLVCNGLIHGIASFVRGGCASGLYPDAFAPVAQFVNWIDSIIQ
Question: For B1, which “bacterial labelling by NBD after cleavage of the probe; confocal images of a co-culture of bacteria and human neutrophils” value [1] is on record?
Answer: Its value is “These images confirm the ability of the probe to be cleaved by neutrophil derived HNE and to label bacteria”.

Question: And the “fluorescence of the cleaved TAMRA compound (spectrophotometer) and NBD labelling of bacteria after cleavage” value (TAMRA-AAPV-NBD-PMX)?
Answer: The value was “the fluorescence of the cleaved TAMRA compound increases in an elastase dependent manner and are inhibited with an elastase inhibitor such as sivelestat”.
